Here are results for four variants from FireProtDB (doi:10.1021/bi00102a015).

The chains are these.
B1: Cytochrome c2, P00094 (parent)
chain: MKISLTAATVAALVLAAPAFAGDAAKGEKEFNKCKTCHSIIAPDGTEIVKGAKTGPNLYGVVGRTAGTYPEFKYKDSIVALGASGFAWTEEDIATYVKDPGAFLKEKLDDKKAKTGMAFKLAKGGEDVAAYLASVVK

In the series the parent is B1. Conditions: Rhodobacter capsulatus (strain ATCC BAA-309 / NBRC 16581 / SB1003); pH 7.5; 25 °C; GdnHCl; CD; Tris-HCl 20 mM; NaCl 40 mM; structure 1C2R; whole UniProt chain shown.

With MKISLTAATVAALVLAAPAFAGDAAKGEKEFNKCETCHSIIAPDGTEIVKGAKTGPNLYGVVGRTAGTYPEFKYKDSIVALGASGFAWTEEDIATYVKDPGAFLKEKLDDKKAKTGMAFKLAKGGEDVAAYLASVVK [K35E], the “ddG of mutation (higher = less stable)” value was 0.9 kcal/mol, the denaturant m value was found to be 2.8 kcal/mol/M, the “denaturant midpoint (higher = more stable)” value stood at 1.2 M and the unfolding free energy came out at 3.5 kcal/mol.
For MKISLTAATVAALVLAAPAFAGDAAKGEKEFNKCETCHSIIAPDGTEIVKGAETGPNLYGVVGRTAGTYPEFKYKDSIVALGASGFAWTEEDIATYVKDPGAFLKEKLDDKKAKTGMAFKLAKGGEDVAAYLASVVK [K35E K53E] the same measures were 0.8 kcal/mol, 3 kcal/mol/M, 1.2 M and 3.6 kcal/mol.
As to MKISLTAATVAALVLAAPAFAGDAAKGEKEFNKCKTCHSIIAPDGTEIVKGAETGPNLYGVVGRTAGTYPEFKYKDSIVALGASGFAWTEEDIATYVKDPGAFLKEKLDDKKAKTGMAFKLAKGGEDVAAYLASVVK [K53E], the “ddG of mutation (higher = less stable)” value is -0.4 kcal/mol, the denaturant m value was determined as 3 kcal/mol/M, the “denaturant midpoint (higher = more stable)” value is 1.6 M and the unfolding free energy stood at 4.8 kcal/mol.
For MKISLTAATVAALVLAAPAFAGDAAKGEKEFNDCKTCHSIIAPDGTEIVKGAKTGPNLYGVVGRTAGTYPEFKYKDSIVALGASGFAWTEEDIATYVKDPGAFLKEKLDDKKAKTGMAFKLAKGGEDVAAYLASVVK [K33D] the same measures were 1.1 kcal/mol, 2.8 kcal/mol/M, 1.2 M and 3.3 kcal/mol.
